US20140087995A1 (published 2014)
Numbered stars: 1 amine (or outer) side, 2 acyl side, 3 side chain; on linkers, the order of the positions; unused ones are H or OH. Bridge positions count the residues as written; N and C are the ends. Side chains are listed from the residue outwards. Ends that are not written are not given here. * marks the point of attachment. C20 diacid = O=C(O)CCCCCCCCCCCCCCCCCCC(=O)*; γGlu = O=C(O)[C@H](CCC(=O)[*:2])N[*:1]

T1: human calcitonin receptor (human, UniProt P30988 25-474)
T1 construct: whole, on cells; Used as cell membranes prepared from the transfected BHK cells (Assay VII), not as intact cells; also called hCTR; hCT
T1 sequence (looked up): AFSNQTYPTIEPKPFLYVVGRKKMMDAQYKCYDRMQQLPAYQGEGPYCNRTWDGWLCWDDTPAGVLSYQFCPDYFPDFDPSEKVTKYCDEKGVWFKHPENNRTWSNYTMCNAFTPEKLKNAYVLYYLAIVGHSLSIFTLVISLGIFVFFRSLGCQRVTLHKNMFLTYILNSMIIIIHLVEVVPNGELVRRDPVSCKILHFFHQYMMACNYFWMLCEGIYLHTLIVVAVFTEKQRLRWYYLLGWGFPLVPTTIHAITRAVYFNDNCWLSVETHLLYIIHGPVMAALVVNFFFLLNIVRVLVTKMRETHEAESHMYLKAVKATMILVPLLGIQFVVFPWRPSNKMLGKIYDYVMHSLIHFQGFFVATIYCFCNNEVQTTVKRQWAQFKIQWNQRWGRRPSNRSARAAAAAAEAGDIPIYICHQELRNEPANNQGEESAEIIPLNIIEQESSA

T2: human amylin receptor (human calcitonin receptor co-expressed with RAMP-3; amylin 3(a) receptor) (human, UniProt P30988 25-474; O60896 24-148, limits assumed)
T2 construct: whole, on cells; Used as cell membranes prepared from Amylin 3(a)/CRE-luc BHK cells (Assay V), not as intact cells; also called hAmylin-R; hAmylinR
T2 sequence (looked up) 1: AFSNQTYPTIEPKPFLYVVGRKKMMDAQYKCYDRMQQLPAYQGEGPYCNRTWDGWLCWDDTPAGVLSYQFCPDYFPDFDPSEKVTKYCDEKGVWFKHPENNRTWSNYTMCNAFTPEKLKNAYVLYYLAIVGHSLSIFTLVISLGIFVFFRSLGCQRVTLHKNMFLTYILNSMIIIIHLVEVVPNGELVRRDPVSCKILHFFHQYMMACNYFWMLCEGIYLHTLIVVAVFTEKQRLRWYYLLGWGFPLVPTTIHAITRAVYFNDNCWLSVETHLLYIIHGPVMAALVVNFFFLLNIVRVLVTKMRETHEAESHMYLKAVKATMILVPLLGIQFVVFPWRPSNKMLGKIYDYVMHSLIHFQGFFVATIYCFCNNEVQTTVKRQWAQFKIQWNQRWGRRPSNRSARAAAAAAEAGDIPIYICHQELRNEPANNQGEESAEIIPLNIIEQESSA
T2 sequence (looked up) 2: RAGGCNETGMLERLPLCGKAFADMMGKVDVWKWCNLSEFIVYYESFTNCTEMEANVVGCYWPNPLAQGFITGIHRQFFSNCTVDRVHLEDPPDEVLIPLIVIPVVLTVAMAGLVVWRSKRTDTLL


What was measured:
[1] = target: T1, human calcitonin receptor; assay: SPA competition against 125I-calcitonin, membranes with human calcitonin receptor (Assay VII)
Method in brief: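 BHK hCTR membranes 35 ng/μL + SPA beads 0.05 mg/well; buffer 50 mM Hepes pH 7.4, 1 mM CaCl2, 5 mM MgCl₂, 0.1% OA, 0.02% Tween20. 120 min, 25° C., shaking. Scintillation count; IC50 by one-site binding competition.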

[2] = target: T2, human amylin receptor (human calcitonin …); assay: ratio of hCTR binding IC50 to hAmylin-R binding IC50 (reference: human calcitonin receptor)
Experimental: The resulting pellet was resuspended, homogenized and centrifuged (20.000 rpm, 15 min) in a buffer containing 20 mM Na-HEPES and 0.1 mM EDTA (pH 7.4, buffer 2). The resulting pellet was resuspended in buffer 2 and protein concentration was measured (BCA protein Assay, Pierce). The homogenate was kept cold during the whole procedure. The membranes were kept at −80° C. until use. The assay was performed in a 384 well Optiplate (PerkinElmer) in a total volume of 40 ul. Membranes were mixed with SPA beads. Final concentration of membranes 35 ng/μL final and SPA beads was 0.05 mg/well. Test-compounds were dissolved in DMSO and further diluted in assay buffer (50 mM Hepes, pH 7.4, 1 mM CaCl2, 5 mM MgCl₂, 0.1% OA and 0.02% Tween20). […] The final mixture was incubated with shaking at 400 rpm for 120 min at 25° C. prior to centrifugation (1500 rpm, 10 min). Samples were analyzed on TopCounter™ (Packard). The IC₅₀ was calculated using (one site binding competition analysis) GraphPad Prism5 as a measure of receptor affinity.
Membranes were prepared in the following way; the cells were rinsed with PBS and incubated with Versene for approximately 5 min before harvesting. The cells were flushed with PBS and the cell-suspension was centrifuged for 5 min at 1000 rpm. Cells were homogenized (Ultrathurrax) in a buffer containing 20 mM Na-HEPES and 10 mM EDTA (pH 7.4) and centrifuged at 20.000 rpm for 15 min. The resulting pellet was resuspended, homogenized and centrifuged (20.000 rpm, 15 min) in a buffer containing 20 mM Na-HEPES and 0.1 mM EDTA (pH 7.4, buffer 2). The resulting pellet was resuspended in buffer 2 and protein concentration was measured (BCA protein Assay, Pierce). The homogenate was kept cold during the whole procedure. The membranes were kept at −80° C. until use. Assay was performed in a 384 well Optiplate (PerkinElmer) in a total volume of 40 ul. Membranes were mixed with SPA beads.

IC50 [1] | Ratio hCT/hAmylin binding [2] | Binder
130 nM | 157 | K([γGlu-C20 diacid])CNTATCATQRLARFLRHSSPNFGAIPSSTPVGSNTY-NH2 (disulfide 2-7; N-terminus assumed; SMILES CC[C@H](C)[C@H](NC(=O)[C@H](C)NC(=O)CNC(=O)[C@H](Cc1ccccc1)NC(=O)[C@H](CC(N)=O)NC(=O)[C@@H]1CCCN1C(=O)[C@H](CO)NC(=O)[C@H](CO)NC(=O)[C@H](Cc1c[nH]cn1)NC(=O)[C@H](CCCNC(=N)N)NC(=O)[C@H](CC(C)C)NC(=O)[C@H](Cc1ccccc1)NC(=O)[C@H](CCCNC(=N)N)NC(=O)[C@H](C)NC(=O)[C@H](CC(C)C)NC(=O)[C@H](CCCNC(=N)N)NC(=O)[C@H](CCC(N)=O)NC(=O)[C@@H](NC(=O)[C@H](C)NC(=O)[C@@H]1CSSC[C@H](NC(=O)[C@@H](N)CCCCNC(=O)CC[C@H](NC(=O)CCCCCCCCCCCCCCCCCCC(=O)O)C(=O)O)C(=O)N[C@@H](CC(N)=O)C(=O)N[C@@H]([C@@H](C)O)C(=O)N[C@@H](C)C(=O)N[C@@H]([C@@H](C)O)C(=O)N1)[C@@H](C)O)C(=O)N1CCC[C@H]1C(=O)N[C@@H](CO)C(=O)N[C@@H](CO)C(=O)N[C@H](C(=O)N1CCC[C@H]1C(=O)N[C@H](C(=O)NCC(=O)N[C@@H](CO)C(=O)N[C@@H](CC(N)=O)C(=O)N[C@H](C(=O)N[C@@H](Cc1ccc(O)cc1)C(N)=O)[C@@H](C)O)C(C)C)[C@@H](C)O, also called compound 63)
31.1 nM | 37.5 | K([γGlu-C20 diacid])CNTATCATQRLAEFLRHSSPNFGAIPSSTNVGSRTY-NH2 (disulfide 2-7; N-terminus assumed; SMILES CC[C@H](C)[C@H](NC(=O)[C@H](C)NC(=O)CNC(=O)[C@H](Cc1ccccc1)NC(=O)[C@H](CC(N)=O)NC(=O)[C@@H]1CCCN1C(=O)[C@H](CO)NC(=O)[C@H](CO)NC(=O)[C@H](Cc1c[nH]cn1)NC(=O)[C@H](CCCNC(=N)N)NC(=O)[C@H](CC(C)C)NC(=O)[C@H](Cc1ccccc1)NC(=O)[C@H](CCC(=O)O)NC(=O)[C@H](C)NC(=O)[C@H](CC(C)C)NC(=O)[C@H](CCCNC(=N)N)NC(=O)[C@H](CCC(N)=O)NC(=O)[C@@H](NC(=O)[C@H](C)NC(=O)[C@@H]1CSSC[C@H](NC(=O)[C@@H](N)CCCCNC(=O)CC[C@H](NC(=O)CCCCCCCCCCCCCCCCCCC(=O)O)C(=O)O)C(=O)N[C@@H](CC(N)=O)C(=O)N[C@@H]([C@@H](C)O)C(=O)N[C@@H](C)C(=O)N[C@@H]([C@@H](C)O)C(=O)N1)[C@@H](C)O)C(=O)N1CCC[C@H]1C(=O)N[C@@H](CO)C(=O)N[C@@H](CO)C(=O)N[C@H](C(=O)N[C@@H](CC(N)=O)C(=O)N[C@H](C(=O)NCC(=O)N[C@@H](CO)C(=O)N[C@@H](CCCNC(=N)N)C(=O)N[C@H](C(=O)N[C@@H](Cc1ccc(O)cc1)C(N)=O)[C@@H](C)O)C(C)C)[C@@H](C)O, also called compound 51)
18 nM | 45.5 | K([γGlu-C20 diacid])CNTATCATQRLAHFLRHSSPNFGAIPSSTNVGSHTY-NH2 (disulfide 2-7; N-terminus assumed; SMILES CC[C@H](C)[C@H](NC(=O)[C@H](C)NC(=O)CNC(=O)[C@H](Cc1ccccc1)NC(=O)[C@H](CC(N)=O)NC(=O)[C@@H]1CCCN1C(=O)[C@H](CO)NC(=O)[C@H](CO)NC(=O)[C@H](Cc1c[nH]cn1)NC(=O)[C@H](CCCNC(=N)N)NC(=O)[C@H](CC(C)C)NC(=O)[C@H](Cc1ccccc1)NC(=O)[C@H](Cc1c[nH]cn1)NC(=O)[C@H](C)NC(=O)[C@H](CC(C)C)NC(=O)[C@H](CCCNC(=N)N)NC(=O)[C@H](CCC(N)=O)NC(=O)[C@@H](NC(=O)[C@H](C)NC(=O)[C@@H]1CSSC[C@H](NC(=O)[C@@H](N)CCCCNC(=O)CC[C@H](NC(=O)CCCCCCCCCCCCCCCCCCC(=O)O)C(=O)O)C(=O)N[C@@H](CC(N)=O)C(=O)N[C@@H]([C@@H](C)O)C(=O)N[C@@H](C)C(=O)N[C@@H]([C@@H](C)O)C(=O)N1)[C@@H](C)O)C(=O)N1CCC[C@H]1C(=O)N[C@@H](CO)C(=O)N[C@@H](CO)C(=O)N[C@H](C(=O)N[C@@H](CC(N)=O)C(=O)N[C@H](C(=O)NCC(=O)N[C@@H](CO)C(=O)N[C@@H](Cc1c[nH]cn1)C(=O)N[C@H](C(=O)N[C@@H](Cc1ccc(O)cc1)C(N)=O)[C@@H](C)O)C(C)C)[C@@H](C)O, also called compound 66)
53.5 nM | 82.4 | K([γGlu-C20 diacid])CNTATCATQRLARFLRHSSPNFGAIPSSTNVGPNTY-NH2 (disulfide 2-7; N-terminus assumed; SMILES CC[C@H](C)[C@H](NC(=O)[C@H](C)NC(=O)CNC(=O)[C@H](Cc1ccccc1)NC(=O)[C@H](CC(N)=O)NC(=O)[C@@H]1CCCN1C(=O)[C@H](CO)NC(=O)[C@H](CO)NC(=O)[C@H](Cc1c[nH]cn1)NC(=O)[C@H](CCCNC(=N)N)NC(=O)[C@H](CC(C)C)NC(=O)[C@H](Cc1ccccc1)NC(=O)[C@H](CCCNC(=N)N)NC(=O)[C@H](C)NC(=O)[C@H](CC(C)C)NC(=O)[C@H](CCCNC(=N)N)NC(=O)[C@H](CCC(N)=O)NC(=O)[C@@H](NC(=O)[C@H](C)NC(=O)[C@@H]1CSSC[C@H](NC(=O)[C@@H](N)CCCCNC(=O)CC[C@H](NC(=O)CCCCCCCCCCCCCCCCCCC(=O)O)C(=O)O)C(=O)N[C@@H](CC(N)=O)C(=O)N[C@@H]([C@@H](C)O)C(=O)N[C@@H](C)C(=O)N[C@@H]([C@@H](C)O)C(=O)N1)[C@@H](C)O)C(=O)N1CCC[C@H]1C(=O)N[C@@H](CO)C(=O)N[C@@H](CO)C(=O)N[C@H](C(=O)N[C@@H](CC(N)=O)C(=O)N[C@H](C(=O)NCC(=O)N1CCC[C@H]1C(=O)N[C@@H](CC(N)=O)C(=O)N[C@H](C(=O)N[C@@H](Cc1ccc(O)cc1)C(N)=O)[C@@H](C)O)C(C)C)[C@@H](C)O, also called compound 65)
31.4 nM | 45.2 | K([γGlu-C20 diacid])CNTATCATQRLANFLRHSSPNFGAIPSSTNVGSHTY-NH2 (disulfide 2-7; N-terminus assumed; SMILES CC[C@H](C)[C@H](NC(=O)[C@H](C)NC(=O)CNC(=O)[C@H](Cc1ccccc1)NC(=O)[C@H](CC(N)=O)NC(=O)[C@@H]1CCCN1C(=O)[C@H](CO)NC(=O)[C@H](CO)NC(=O)[C@H](Cc1c[nH]cn1)NC(=O)[C@H](CCCNC(=N)N)NC(=O)[C@H](CC(C)C)NC(=O)[C@H](Cc1ccccc1)NC(=O)[C@H](CC(N)=O)NC(=O)[C@H](C)NC(=O)[C@H](CC(C)C)NC(=O)[C@H](CCCNC(=N)N)NC(=O)[C@H](CCC(N)=O)NC(=O)[C@@H](NC(=O)[C@H](C)NC(=O)[C@@H]1CSSC[C@H](NC(=O)[C@@H](N)CCCCNC(=O)CC[C@H](NC(=O)CCCCCCCCCCCCCCCCCCC(=O)O)C(=O)O)C(=O)N[C@@H](CC(N)=O)C(=O)N[C@@H]([C@@H](C)O)C(=O)N[C@@H](C)C(=O)N[C@@H]([C@@H](C)O)C(=O)N1)[C@@H](C)O)C(=O)N1CCC[C@H]1C(=O)N[C@@H](CO)C(=O)N[C@@H](CO)C(=O)N[C@H](C(=O)N[C@@H](CC(N)=O)C(=O)N[C@H](C(=O)NCC(=O)N[C@@H](CO)C(=O)N[C@@H](Cc1c[nH]cn1)C(=O)N[C@H](C(=O)N[C@@H](Cc1ccc(O)cc1)C(N)=O)[C@@H](C)O)C(C)C)[C@@H](C)O, also called compound 60) [N^ε1-[(4S)-4-carboxy-4-(19-carboxynonadecanoylamino)butanoyl]-[Arg17,Pro21,Pro27,His35]-h-amylin]
